Experimental data published in patent US20170189529A1 (CONTRAFECT, published 2017).
Read-outs that look alike come from different tables or passages of the source.

B1: TRL854 (antibody, V domains shown)
VH: QVQLVESGAEVKKPGASVRVSCKGSGYTFTAYHMHWVRQAPGQGFEWVGWINPNSGATYYTSTFEGRVTMTRDTSITTAYMELSSLRSDDTAVYYCATDIVVERDASLGGFNSYGMDVWGQGTTVTVSS
VL: DIEMTQSPLSLPVTPGEPASISCRSSQSLLHSNGYNHLAWYLQKPGRSPHLLIYLASTRASGVPDRFSGSGSGTDFTLKISRVEAEDVGIYYCMQSLQTSITFGQGTRLEIKR
B2: TRL053 (antibody, V domains shown)
VH: QVQLVQSGAEVRKPGSSVKVSCKVSGGIIRKYAINWVRQAPGQGLEWMGGIIAIFNTANYAQKFQGRVTITADESTSTVYMELSSLRSEDTALYYCARGMNYYSDYFDYWGQGSLVTVSP
VL: EIVLTQSPGTLSLSPGERATLSCRASQSVRSNNLAWYQHKPGQAPRLLIFGASSRATGIPDRFSGSGSGTDFTLTISRLEPEDFAVYYCQQYGSSPALTFGGGTKVEIKR
B3: TRL579 (antibody, V domains shown)
VH: QVQLVQSGAEVKKPGASVKVSCKTSGYTFTAYTIHWVRQAPGQRLEWMGWINAGNGHTKYSQRFKGRVTITRDTSARTTYMELRSLTSEDTALYFCARGPETYYYDKTNWLNSHPDEYFQHWGHGTQVTVSS
VL: DIQMTQSPSTLSASVGDRVTITCRASQTINNYLAWYQQKPGKAPKLLIYKASSLESGVPSRFSGSGSGTEFTLTISSLQPDDFATYYCQEYNNDSPLTFGGGTKVEIKR
B4: TRL846 (antibody, V domains shown)
VH: QVQLVESGGGLVQPGGSLRLSCTVSGFTFNSYAMNWVRQAPGKGLEWVSGIRGSGENTYYAETVKGRFTISRDNSKNTLYLEMNSLRAEDTAVYYCARKWGRMTVFGVATDQLYYFDYWGQGTLVTVSS
VL: DITLTQSPATLSVSPGERATLSCRASQSVSSNLAWYQQKPGQAPRLLIYGASNRATDIPARFSGSGSGTEFTLTISSLQSEDFAVYYCQQFNDWPFLTFGGGTKVEIKR

Experiments:
[1] = molecular target: T1, hemagglutinin (HA) of influenza B virus B/Florida (Yamagata lineage) (influenza B virus B/Florida/06 …)
[2] = molecular target: T2, hemagglutinin (HA) of influenza B virus B/Malaysia (Victoria lineage) (influenza B virus B/Malaysia/04 …); experiment: affinity determination (method not stated there; data not shown)
[3] = molecular target: T1, hemagglutinin (HA) of influenza B virus …; experiment: recombinant HA ELISA (AttoPhos fluorescence, mean of triplicates)
[4] = molecular target: T2, hemagglutinin (HA) of influenza B virus …; experiment: as above
[5] = molecular target: recombinant HA of influenza B virus B/Mass/12 (Yamagata clade) (influenza B virus B/Mass/12 (Yamagata …)); experiment: as above
[6] = molecular target: recombinant HA of influenza B virus B/Wisconsin/10 (Yamagata clade) (influenza B virus B/Wisconsin/10 …); experiment: as above
[7] = molecular target: recombinant HA of influenza B virus B/Brisbane/08 (Victoria clade) (influenza B virus B/Brisbane/08 …); experiment: as above
[8] = molecular target: hemagglutinin of influenza A virus A/CA/04/09 (H1), on virus (influenza A virus H1 A/CA/04/09); experiment: cell-based or functional assay
[9] = molecular target: hemagglutinin of influenza A virus A/mallard/MN/AI08-3881/08 (H2), on virus (influenza A virus H2 …); experiment: cell-based or functional assay
[10] = molecular target: hemagglutinin of influenza A virus A/Mallard/MN/182753/98 (H9), on virus (influenza A virus H9 …); experiment: cell-based or functional assay
[11] = molecular target: H2 Japan/305/1957 HA monomer (influenza A virus H2 Japan/305/1957, UniProt P03451 16-525); experiment: kinetic binding to HA monomer (instrument not stated)
[12] = molecular target: hemagglutinin of influenza A virus A/Perth/16/2009 (H3), on virus (influenza A virus H3 A/Perth/16/2009); experiment: cell-based or functional assay
[13] = molecular target: hemagglutinin of influenza A virus A/Philippines/2/82 x-79, on virus (influenza A virus A/Philippines/2/82 …); experiment: cell-based or functional assay
[14] = molecular target: hemagglutinin of influenza A virus A/Udorn/307/1976, on virus (influenza A virus A/Udorn/307/1976); experiment: cell-based or functional assay
[15] = molecular target: hemagglutinin of influenza A virus A/New York/55/2004, on virus (influenza A virus A/New York/55/2004); experiment: cell-based or functional assay
[16] = molecular target: hemagglutinin of influenza A virus A/Wisconsin/67/2005, on virus (influenza A virus A/Wisconsin/67/2005); experiment: cell-based or functional assay
[17] = molecular target: hemagglutinin of influenza A virus A/HongKong/68, on virus (influenza A virus A/HongKong/68); experiment: cell-based or functional assay
[18] = molecular target: hemagglutinin of influenza A virus A/SW/MN/02719, on virus (influenza A virus A/SW/MN/02719); experiment: cell-based or functional assay
[19] = molecular target: hemagglutinin of influenza A virus A/Bufflehead (H4), on virus (influenza A virus H4 A/Bufflehead); experiment: cell-based or functional assay
[20] = molecular target: hemagglutinin of influenza A virus A/Canada/rv444/04 (H7), on virus (influenza A virus H7 A/Canada/rv444/04); experiment: cell-based or functional assay
[21] = molecular target: hemagglutinin of influenza A virus A/Netherlands/219/03, on virus (influenza A virus A/Netherlands/219/03); experiment: cell-based or functional assay
[22] = molecular target: hemagglutinin of influenza A virus A/Northern Shoveler (H10), on virus (influenza A virus H10 A/Northern …); experiment: cell-based or functional assay
[23] = molecular target: T3, H3 Hong Kong/8/68 HA trimer (influenza A virus H3 Hong Kong/8/68); experiment: kinetic binding to HA trimer (instrument not stated)
T3 construct: Trimeric HA

[24] = molecular target: T2, hemagglutinin (HA) of influenza B virus …

Binder | Kd [1] | fold reactivity over background [3] | fold reactivity over background [4] | fold reactivity over background [5] | fold reactivity over background [6] | fold reactivity over background [7] | other results
B1 | 8.8 nM | 25.6 fold over background | 25.6 fold over background | 25.6 fold over background | 25.6 fold over background | 25.6 fold over background | Kd [2]: < 1 nM
B2 |  | 1.1 fold over background | 1.6 fold over background | 1 fold over background | 2.8 fold over background | 1 fold over background | IC50 (ug/ml), MDCK monolayer microneutralization assay [8]: 0.9 µg/mL; IC50 (ug/ml), MDCK monolayer microneutralization assay [9]: 0.3 µg/mL; IC50 (ug/ml), MDCK monolayer microneutralization assay [10]: 0.1 µg/mL; Kd [11]: 12.3 nM; koff [11]: 6.8e-05 s⁻¹; kon [11]: 5500 M⁻¹ s⁻¹
B3 |  | 1 fold over background | 1.1 fold over background | 3.2 fold over background | 1 fold over background | 1 fold over background | IC50 (ug/ml), MDCK monolayer microneutralization assay [12]: 0.2 µg/mL; IC50 (ug/ml), MDCK monolayer microneutralization assay [13]: 0.9 µg/mL; IC50 (ug/ml), MDCK monolayer microneutralization assay [14]: 1.9 µg/mL; IC50 (ug/ml), MDCK monolayer microneutralization assay [15]: 1.1 µg/mL; IC50 (ug/ml), MDCK monolayer microneutralization assay [16]: 1 µg/mL; IC50 (ug/ml), MDCK monolayer microneutralization assay [17]: 2.8 µg/mL; IC50 (ug/ml), MDCK monolayer microneutralization assay [18]: 3.9 µg/mL; IC50 (ug/ml), MDCK monolayer microneutralization assay [19]: 15.5 µg/mL; IC50 (ug/ml), MDCK monolayer microneutralization assay [20]: 1.6 µg/mL; IC50 (ug/ml), MDCK monolayer microneutralization assay [21]: 0.6 µg/mL; IC50 (ug/ml), MDCK monolayer microneutralization assay [22]: 0.8 µg/mL; Kd [23]: 0.2 nM; koff [23]: 5.8e-05 s⁻¹; kon [23]: 250000 M⁻¹ s⁻¹
B4 | 0.85 nM | 25.6 fold over background | 25.6 fold over background | 25.6 fold over background | 25.6 fold over background | 25.6 fold over background | Kd [24]: < 1 nM
